The record followed here is US20180142032A1 (Sanofi, published 2018).

Test [1] deals with T1, cynomolgus monkey LAMP1 at the cell surface (cynomolgus monkey, UniProt P11279 29-417 (human entry)).
T1 construct: also called cynoLAMP1; cynomolgus LAMP1
T1 chain: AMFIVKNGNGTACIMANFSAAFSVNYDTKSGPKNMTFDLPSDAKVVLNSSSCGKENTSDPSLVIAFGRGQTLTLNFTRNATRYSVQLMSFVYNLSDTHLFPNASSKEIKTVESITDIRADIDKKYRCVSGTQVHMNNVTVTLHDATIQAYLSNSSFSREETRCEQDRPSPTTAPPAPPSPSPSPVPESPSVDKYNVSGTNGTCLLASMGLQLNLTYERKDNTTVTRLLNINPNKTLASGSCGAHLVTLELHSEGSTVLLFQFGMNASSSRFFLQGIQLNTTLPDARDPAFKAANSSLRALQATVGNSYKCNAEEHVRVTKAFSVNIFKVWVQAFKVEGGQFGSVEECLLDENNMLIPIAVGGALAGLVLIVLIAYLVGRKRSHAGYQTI
Nature of the test: flow cytometry.

Test [2] concerns the target T2, human LAMP1 at the cell surface (human, UniProt P11279 29-417).
T2 construct: native on tumour cells (PDX, Colo205, SW480, LS174T) or from the cloned CDS NM_005561.3 in HEK293 and HCT116; signal peptide 1-28 left out; also called huLAMP1; full length human LAMP1
T2 sequence: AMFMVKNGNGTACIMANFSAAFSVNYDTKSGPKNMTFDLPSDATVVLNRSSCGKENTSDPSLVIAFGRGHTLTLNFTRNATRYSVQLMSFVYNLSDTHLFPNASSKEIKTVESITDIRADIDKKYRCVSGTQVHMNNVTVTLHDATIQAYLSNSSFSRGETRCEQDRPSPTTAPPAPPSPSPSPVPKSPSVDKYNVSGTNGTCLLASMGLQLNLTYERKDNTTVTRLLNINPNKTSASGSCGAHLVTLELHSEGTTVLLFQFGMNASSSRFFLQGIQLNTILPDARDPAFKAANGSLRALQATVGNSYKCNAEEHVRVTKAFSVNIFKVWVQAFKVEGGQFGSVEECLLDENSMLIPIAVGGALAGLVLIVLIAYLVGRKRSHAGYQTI
Nature of the test: flow cytometry, HCT116 huLAMP1 clone 8. As for the experimental part: HCT116 cells were infected by a lentiviral vector allowing stable integration of the human or the cynomolgus LAMP1 CDS in genomic DNA of cells. Individual clones with different densities of human or cynomolgus LAMP1 cell surface localization were derived from a pool of HCT116 infected cells. […] 100 μL/well of goat anti-human IgG conjugated with Alexa488 (Invitrogen; # A11013) was added for 1 h at 4° C. and washed two times with PBS 1% BSA. The antibody binding was evaluated after centrifugation and resuspension of cells in 100 μl fixing solution (paraformaldehyde at 4% in PBS). Samples were read using Galaxy® Flow Cytometry System (Partec). EC50 values were estimated using BIOST@T-SPEED software.

Test [3] addresses T1, cynomolgus monkey LAMP1 at the cell …. The test is described as follows: flow cytometry, HEK293 cynoLAMP1 clone 44. (In general: A flow cytometer gives signals particle by particle.)
For test [4], the target named is T2, human LAMP1 at the cell surface. The test is described as follows: cell-based or functional assay.
A further test deals with T3, LAMP1_mL1_hL234_ΔGYQTI (mouse; human).
T3 construct: on cells; also called pXL5668
T3 chain: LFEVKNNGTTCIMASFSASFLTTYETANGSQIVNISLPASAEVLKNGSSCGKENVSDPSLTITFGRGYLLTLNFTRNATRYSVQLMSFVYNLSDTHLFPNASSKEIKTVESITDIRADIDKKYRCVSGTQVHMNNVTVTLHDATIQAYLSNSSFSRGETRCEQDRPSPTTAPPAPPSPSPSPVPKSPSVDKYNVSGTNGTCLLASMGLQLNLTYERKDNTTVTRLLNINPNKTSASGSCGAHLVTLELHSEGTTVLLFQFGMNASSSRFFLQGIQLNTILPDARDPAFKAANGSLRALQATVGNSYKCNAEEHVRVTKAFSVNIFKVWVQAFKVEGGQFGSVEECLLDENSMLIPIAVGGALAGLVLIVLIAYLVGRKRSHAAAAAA
Nature of the test: flow cytometry, transfected 293-F cells.

Another test addresses T4, hLAMP1_ΔGYQTI (human, UniProt P11279 29-412).
T4 construct: also called pXL5626
T4 sequence: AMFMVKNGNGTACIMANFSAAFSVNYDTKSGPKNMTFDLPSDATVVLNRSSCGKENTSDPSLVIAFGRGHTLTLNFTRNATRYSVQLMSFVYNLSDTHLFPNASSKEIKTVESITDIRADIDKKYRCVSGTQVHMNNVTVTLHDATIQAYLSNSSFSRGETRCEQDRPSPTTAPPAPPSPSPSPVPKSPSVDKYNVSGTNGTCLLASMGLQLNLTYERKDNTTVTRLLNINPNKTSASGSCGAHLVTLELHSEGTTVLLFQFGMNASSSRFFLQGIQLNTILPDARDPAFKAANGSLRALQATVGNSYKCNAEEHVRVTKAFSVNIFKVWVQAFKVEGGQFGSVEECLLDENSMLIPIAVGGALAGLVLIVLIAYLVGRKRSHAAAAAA
Nature of the test: flow cytometry, transfected 293-F cells.

The target in test [5] is T5, mLAMP1_L1_LAMP1_L234::histag (mouse/human hybrid).
T5 construct: also called Loop1: mLAMP1 Loop2-4: hLAMP1
T5 chain: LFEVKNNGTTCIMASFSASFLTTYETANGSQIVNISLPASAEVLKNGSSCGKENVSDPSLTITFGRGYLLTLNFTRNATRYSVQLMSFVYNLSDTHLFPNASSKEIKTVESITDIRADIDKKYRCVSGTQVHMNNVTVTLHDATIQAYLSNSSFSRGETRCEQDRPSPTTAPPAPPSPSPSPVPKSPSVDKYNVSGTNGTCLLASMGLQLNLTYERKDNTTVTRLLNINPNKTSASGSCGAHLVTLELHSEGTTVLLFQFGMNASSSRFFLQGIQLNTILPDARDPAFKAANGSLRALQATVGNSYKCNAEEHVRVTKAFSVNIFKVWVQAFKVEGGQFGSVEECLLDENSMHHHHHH
The test is described as follows: ELISA. (In general: ELISA stands for enzyme-linked immunosorbent assay.)

The target in test [6] is T6, mLAMP1_L12_LAMP1_L34::histag (mouse/human hybrid).
T6 construct: mouse LAMP1 (25-189) and human LAMP1 (196-382), His tag; also called Loop1-2: mLAMP1 Loop3-4: hLAMP1
T6 chain: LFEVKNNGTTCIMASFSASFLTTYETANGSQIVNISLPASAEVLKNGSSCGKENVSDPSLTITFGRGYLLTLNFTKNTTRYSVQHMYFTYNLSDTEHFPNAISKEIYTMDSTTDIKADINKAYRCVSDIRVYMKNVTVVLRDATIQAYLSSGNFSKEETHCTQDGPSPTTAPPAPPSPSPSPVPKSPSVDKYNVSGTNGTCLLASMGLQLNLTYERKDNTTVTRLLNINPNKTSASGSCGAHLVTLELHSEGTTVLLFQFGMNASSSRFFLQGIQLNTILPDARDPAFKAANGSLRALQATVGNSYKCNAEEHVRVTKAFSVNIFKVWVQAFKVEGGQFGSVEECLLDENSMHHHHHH
Nature of the test: ELISA.

The next test has as its target T7, mLAMP1::histag (mouse, UniProt P11438 25-369).
T7 construct: also called mouse LAMP1 (25-369); Mouse LAMP1
T7 sequence: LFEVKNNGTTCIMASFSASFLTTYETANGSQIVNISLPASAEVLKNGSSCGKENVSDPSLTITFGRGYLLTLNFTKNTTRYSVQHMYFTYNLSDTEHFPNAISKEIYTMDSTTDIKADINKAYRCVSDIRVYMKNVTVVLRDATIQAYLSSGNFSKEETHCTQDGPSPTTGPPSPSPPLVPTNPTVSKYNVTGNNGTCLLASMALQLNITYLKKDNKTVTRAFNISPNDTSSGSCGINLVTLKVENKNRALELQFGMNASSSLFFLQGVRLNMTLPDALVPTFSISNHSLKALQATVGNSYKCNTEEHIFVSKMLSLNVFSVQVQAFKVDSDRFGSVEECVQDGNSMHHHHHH
Nature of the test: ELISA.

The target in a further test is T8, LAMP1::histag (human, UniProt P11279 29-382).
T8 construct: extracellular domain without signal peptide, C-terminal 6 His tag, made in HEK293 cells; also called recombinant human LAMP1; human LAMP1 (29-382)
T8 sequence: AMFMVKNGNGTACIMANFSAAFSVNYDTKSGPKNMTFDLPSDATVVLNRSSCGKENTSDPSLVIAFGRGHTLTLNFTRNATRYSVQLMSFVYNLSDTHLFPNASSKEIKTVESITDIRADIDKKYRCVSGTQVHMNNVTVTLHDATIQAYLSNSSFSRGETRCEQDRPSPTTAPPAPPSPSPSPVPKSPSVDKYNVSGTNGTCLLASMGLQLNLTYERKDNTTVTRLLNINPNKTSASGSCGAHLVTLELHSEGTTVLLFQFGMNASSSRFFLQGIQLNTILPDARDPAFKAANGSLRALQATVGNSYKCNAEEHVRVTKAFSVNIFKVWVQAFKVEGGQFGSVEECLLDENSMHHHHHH
The test is described as follows: ELISA on secreted human LAMP1.

Test [7] concerns the target T2, human LAMP1 at the cell surface. The test is described as follows: flow cytometry, HCT116 huLAMP1 clone 8. As for the experimental part: 100 μL/well of goat anti-human IgG conjugated with Alexa488 (Invitrogen; # A11013) was added for 1 h at 4° C. and washed two times with PBS 1% BSA. The antibody binding was evaluated after centrifugation and resuspension of cells in 100 ul fixing solution (paraformaldehyde at 4% in PBS). Samples were read using Galaxy® Flow Cytometry System (Partec).
The source holds these as a separate data set.

Test [8] has the same target. Nature of the test: cell-based or functional assay. The source holds these as a separate data set.

Where two headings read alike, the source gives them in different places.

B1: DM4-SPDB-huMAb1_1 (antibody, human IgG1, kappa)
heavy: not shown
light: DIQMTQSPSSLSASVGDRVTITCKASQDIDRYMAWYQDKPGKAPRLLIHDTSTLQSGVPSRFSGSGSGRDYTLTISNLEPEDFATYYCLQYDNLWTFGGGTKVEIKRTVAAPSVFIFPPSDEQLKSGTASVVCLLNNFYPREAKVQWKVDNALQSGNSQESVTEQDSKDSTYSLSSTLTLSKADYEKHKVYACEVTHQGLSSPVTKSFNRGEC
modifications: DM4 linked through SPDB, average DAR 3.4 per antibody; sites not stated
notes: antibody drug conjugate of huMAb1_1
A word on the EC50: it is the concentration at which the effect is half-maximal. B1: the “Ratio of EC50s (cynoLAMP1 against huLAMP1)” value in [1] amounted to 2.65. Besides, the EC50 in test [2] turned out to be 12.7 nM; in test [3], 33.5 nM. Further, the “cytotoxicity IC50, HCT116 huLAMP1 clone 8” value in test [4] stood at 0.1 nM.

B2: chMAb3 (antibody, human IgG1, kappa, V domains shown)
VH: QIQLVQSGPELKKPGETVKISCKASGYIFTNYGMNWVKQAPGKGLKWMGWINTYTGESRYADDFKGRFALSLETSASTAYLQINNLENEDMATYFCAREDYYGNSPWFFDVWGAGTTVTVSS
VL: DIQMTQTTSSLSASLGDRVTISCNASQGINKYLNWYQQKPDGTVKLLIYYTSTLHSGVPSRFSGSGSGTDYSLTINNLEPEDIATYYCQQYTKLPFTFGSGTKLEIKR
notes: chimeric, human IgG1, Ckappa
As to B2, the binding result (with LAMP1_mL1_hL234_ΔGYQTI; in [5]; in test [6]; with mLAMP1::histag) was “no binding” each time. For the same molecule, the mean fluorescence with hLAMP1_ΔGYQTI was 640.

B3: chMAb1 (antibody, human IgG1, kappa)
heavy: not shown
light: DIQMTQSPPSLSASLGGKVTITCKASQDIDRYMAWYQDKPGKGPRLLIHDTSTLQPGIPSRFSGSGSGRDYSFSISNLEPEDIATYYCLQYDNLWTFGGGTKLEIKRTVAAPSVFIFPPSDEQLKSGTASVVCLLNNFYPREAKVQWKVDNALQSGNSQESVTEQDSKDSTYSLSSTLTLSKADYEKHKVYACEVTHQGLSSPVTKSFNRGEC
notes: chimeric, human IgG1, Ckappa; also called MAb1 (chimeric)
In the test with LAMP1::histag, B3 returned an EC50 of 0.09 nM. Moreover, the EC50 in [7] was found to be 6 nM. In addition, the binding result in [6] is “no binding”. In the test with mLAMP1::histag, the binding result is listed as “no binding”. For the same molecule, in test [8], the “ADCC EC50, NK batch 67125626389” value turned out to be 0.05 nM; the “ADCC EC50, NK batch 67125903091” value turned out to be 0.76 nM; the “ADCC EC50, NK batch 67130127373” value came to 0.009 nM; the “ADCC EC50, NK batch 67130494552” value came to 0.2 nM. Besides, the “ADCC EC50, NK batch 67130496259” value in test [8] was 0.6 nM.
